# ± gives the uncertainty stated by the source.
# Assay: protein stability index of a GFP-peptide fusion (yeast GPS) (PSI 1-4); higher = more stable; sorted into four equal gates, so the index is relative within each strain
# In short: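 Plasmids isolated from each sorting gate were PCR-amplified and Illumina-sequenced, and barcodes assigned the reads to strains. The gates, four of equal size, were set by GFP/Cherry fluorescence ratio on mid-log cultures in leucine-free medium. These cultures were yeast carrying a pooled library of tiled 17-residue yeast protein peptides fused downstream of GFP on a plasmid that also expresses Cherry. The protein stability index is the sum of every gate's read frequency times its gate number.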
Sequence,protein stability index (doa10∆),protein stability index (pdr5∆),protein stability index (san1∆),protein stability index (ubr1∆)
NKDMIKNLVKVLESRVN [CSN12],2.32 ± 0.23,2.63 ± 0.15,1.58 ± 0.18,1.75 ± 0.15
GVVVLRDREPKEPVALI [RPN2],3.5 ± 0.1,3.21 ± 0.11,3.45 ± 0.076,3.41 ± 0.29
IRKYGLNICRQCFREKA [RPS29A],1.59 ± 0.067,1.67 ± 0.045,1.32 ± 0.11,1.73 ± 0.065
LTGEATANALPLPAVFS [RPL4A],2.02 ± 0.052,2.36 ± 0.047,2.35 ± 0.068,2.71 ± 0.038
LFAREIAKSQDKKSCSV [DPB4],3.33 ± 0.064,3.24 ± 0.073,3.14 ± 0.067,3.22 ± 0.04
FGSKPTGATSLFGSSNN [YGL172W/NUP49],3.39 ± 0.11,3.59 ± 0.11,3.54 ± 0.044,3.64 ± 0.1
ENIENEEYVINLLKVSV [ECM29],1.96 ± 0.12,3.23 ± 0.19,–,3.1 ± 0.11
SNSMDRSSSASNEFVPN [SWI1],2.75 ± 0.055,2.71 ± 0.055,2.65 ± 0.046,2.69 ± 0.045
EFIYLTKVLQFAAKQRQ [SNF2],1.33 ± 0.19,1.28 ± 0.15,1.39 ± 0.15,–
GQCRPISKTVRFNVVKV [RPS11A],3.31 ± 0.12,2.93 ± 0.22,2.76 ± 0.097,2.77 ± 0.1
KGKKYQPKDLRAKKTRA [RPL35A],2.85 ± 0.25,2.98 ± 0.14,2.46 ± 0.13,2.89 ± 0.12
GTPLLEVRGQVPVIESA [SNU114],1.62 ± 0.046,1.88 ± 0.052,2.06 ± 0.093,1.95 ± 0.048
MSHRKYEAPRHGHLGFL [RPL3],–,3.15 ± 0.19,2.9 ± 0.099,2.94 ± 0.23
NNPLVQKKNFLFKPLNK [ARP7],2.33 ± 0.23,2.51 ± 0.14,2.2 ± 0.28,–
EDFMDIPKPRTAGKTSV [SNF2],2.67 ± 0.14,3.24 ± 0.085,3.2 ± 0.18,3.08 ± 0.06
RKLEISSRFKHRQEIFK [GAL11],2.76 ± 0.064,3.1 ± 0.061,3.01 ± 0.059,3.09 ± 0.051
QLQQQPQMQCALQNLSQ [YGL172W/NUP49],2.19 ± 0.12,2.06 ± 0.09,2.42 ± 0.11,2.18 ± 0.077
IKKFAKLHMGTEDVRLA [RPL31B],3.21 ± 0.21,3.21 ± 0.22,2.71 ± 0.15,2.73 ± 0.14
DKLTRVHDKIWCCRSGS [PRE3],2.78 ± 0.061,2.68 ± 0.068,2.67 ± 0.056,2.9 ± 0.032
DKNELQQMIITRLKSLL [SIR3],2.23 ± 0.058,2.04 ± 0.05,2.12 ± 0.063,2.08 ± 0.037
ALSIADDASSAELLGRV [RPC53],3.02 ± 0.16,2.92 ± 0.26,3.21 ± 0.18,3.12 ± 0.085
ASRSQLEKGEIELSDGS [YJL039C/NUP192],3.06 ± 0.081,3.02 ± 0.072,2.8 ± 0.07,3 ± 0.042
YWKLWIDEPFNLDFDPR [FAS1],3.52 ± 0.12,2.84 ± 0.13,–,2.27 ± 0.15
QTENDLKDIEARIKEKA [RPT1],2.8 ± 0.13,2.91 ± 0.11,3.03 ± 0.099,3.37 ± 0.065
DDPFMTKSGATTSEKQE [GAL11],2.97 ± 0.18,3.26 ± 0.13,2.82 ± 0.23,–
EQNHLDNNYNTAETNNK [YDL088C/ASM4],3 ± 0.056,2.96 ± 0.067,3.02 ± 0.043,2.93 ± 0.065
KVAEVKKLEGTIEYQKL [RPT4],3.13 ± 0.12,3.16 ± 0.11,3.17 ± 0.074,3.57 ± 0.082

Sequence,protein stability index (doa10∆),protein stability index (pdr5∆),protein stability index (san1∆),protein stability index (ubr1∆)
VFERFKTKILEVAIRDV [IRR1],1.77 ± 0.081,1.75 ± 0.09,1.43 ± 0.14,1.67 ± 0.072
RNKSAANNDINSLLSNF [YDL088C/ASM4],2.94 ± 0.15,3.07 ± 0.095,2.99 ± 0.091,3.02 ± 0.056
SYEVEHVIQIPLNKPLL [TAF14],2.46 ± 0.069,2.66 ± 0.045,2.52 ± 0.06,2.51 ± 0.055
YIYSQETKSWINESAEN [MED1],2.58 ± 0.047,2.66 ± 0.039,2.46 ± 0.048,2.48 ± 0.031
GVNGYIWLRKTSQMDLA [RRP4],3.07 ± 0.077,2.74 ± 0.068,3.07 ± 0.097,2.9 ± 0.098
QTNIWEENWDDVEVDDD [SEM1],3.27 ± 0.16,3.28 ± 0.09,3.37 ± 0.082,3.38 ± 0.13
QFSESTHNDIDSTAVAL [YJL039C/NUP192],2.76 ± 0.098,2.5 ± 0.2,2.71 ± 0.087,3.16 ± 0.071
GLVNHRVGVKLKFNSTE [SMX3],2.48 ± 0.052,2.24 ± 0.04,1.94 ± 0.056,1.48 ± 0.036
HTEDEQIEKKKICRGRM [SIR4],3.52 ± 0.17,3.38 ± 0.12,3.48 ± 0.13,3.16 ± 0.083
YYSLNIDYHKTAKETKM [RPN11],2.75 ± 0.067,2.77 ± 0.072,2.87 ± 0.053,2.74 ± 0.06
PLELSAPIGKHYVVLDT [DIS3],2.83 ± 0.1,2.78 ± 0.14,2.63 ± 0.086,2.39 ± 0.11
IEPFECVEISHISKIIG [RPN6],2.47 ± 0.14,–,1.94 ± 0.3,–
VEMAWIMGFISYHNGNL [FAS2],2.67 ± 0.14,3.2 ± 0.1,3.29 ± 0.063,3.06 ± 0.12
PSKDSFTKYKPARSSSL [YAR002W/NUP60],2.15 ± 0.043,2.59 ± 0.044,2.44 ± 0.053,2.77 ± 0.04
ECPLDPGGYFIVNGTEK [RET1],3.18 ± 0.12,3.34 ± 0.095,3.26 ± 0.088,3.29 ± 0.082
KPGIPRGNTKIHSMNEN [SIR3],3.23 ± 0.2,2.9 ± 0.22,3.32 ± 0.098,3.23 ± 0.12
KKKGLDENTSGKISKPR [PRP28],3.5 ± 0.091,3.23 ± 0.14,3.52 ± 0.065,3.45 ± 0.099
EEVMRIALMGQDNKKIY [ESC2],2.53 ± 0.07,2.72 ± 0.12,2.2 ± 0.11,2.64 ± 0.051
KDIEKLTNEISDLKGKL [YIL149C/MLP2],3.04 ± 0.11,3.12 ± 0.049,3.34 ± 0.067,3.17 ± 0.057
TYRSRAQQVPPYGVYHP [SIN4],2.77 ± 0.1,2.13 ± 0.085,2.8 ± 0.063,2.71 ± 0.078
DTFRWVGKKSAPEKDIW [RPO31],2.79 ± 0.095,2.88 ± 0.11,2.9 ± 0.067,3.15 ± 0.061
LKYYQDLKNTRMKSITS [SNF5],1.45 ± 0.23,2.24 ± 0.19,2.4 ± 0.15,2.98 ± 0.22
VDIQIINQYQLLYNLKN [SWI1],1.68 ± 0.031,1.54 ± 0.041,1.49 ± 0.086,1.33 ± 0.033
IVFHNEFSEHTFVERLP [DIS3],2.43 ± 0.05,2.28 ± 0.063,2.64 ± 0.058,2.68 ± 0.053
ERQQDELENFLDNFETK [YJL041W/NSP1],3.23 ± 0.16,3.29 ± 0.21,3.48 ± 0.13,3.38 ± 0.075
FYAAVQKNYADPEKDSI [SIN4],2.11 ± 0.083,2.58 ± 0.074,2.01 ± 0.093,1.59 ± 0.046
